The results in this text go back to article PMC9643335.

For the experiment, the target named is Trypanosoma brucei ADAT3 (Trypanosoma brucei). The experiment in a line: cryo-EM structure; TbADAT2/3 heterodimer co-expressed in Hi5 cells, purified via the His tag on TbADAT3 (1 M KCl wash), tag cleaved, SEC; mixed with in vitro transcribed TbtRNA-Thr(CGU) in 20 mM Hepes pH 7.5, 50 mM NaCl, 2 mM MgCl2, 0.5 mM TCEP, SEC, vitrified.

The substance “Trypanosoma brucei ADAT2 (A87G/C117S) (enzyme)” displayed a stoichiometry N of 1.

A word on the stoichiometry N: it is the number of molecules, sites or subunits per partner or assembly.
